Measured values taken from CN117616043A (BIOGIC DESIGN LTD, dated 2024).

Legend:
重组人IL-13 (rh-IL-13) = 重组人IL-13 (rh-IL-13) (human, UniProt P35225 35-146); experiment: cell-based or functional assay
hTSLP-His = hTSLP-His (human, UniProt Q969D9 29-159, limits assumed); experiment: cell-based or functional assay
人TSLP (hTSLP) = target: T1, 人TSLP (hTSLP) (human, UniProt Q969D9 29-159); experiment: SPR and ELISA, conclusion of Example 3
T1 construct: also called rhTSLP

Sequence of 重组人IL-13 (rh-IL-13) (P35225 35-146 limits assumed): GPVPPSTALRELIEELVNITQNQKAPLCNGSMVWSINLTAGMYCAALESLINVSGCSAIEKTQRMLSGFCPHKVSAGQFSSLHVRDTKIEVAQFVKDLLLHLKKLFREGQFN

Binder | IC50 (IL-13信号传导级联抑制, HEK-Blue IL-4/IL-13, SEAP) (重组人IL-13 (rh-IL-13)) [nM] | IC50 (MUTZ-5细胞pSTAT5抑制) (hTSLP-His) [nM] | also measured
BDG33.023 (antibody, V domains shown) VH: QMQLVESGGGVVQPGRSLRLSCAASGFAFRTYGMHWVRQAPGKGLEWVAVIWYDGSNTHYADSVKGRFTITRDNSKNTLNLQMNSLRAEDTAVYYCARAPQWYLSAEAFDLWGQGTMVTVSS VL: SYVLTQPPSVSVAPGQTARITCGGNLIGSKLVHWYQQKPGQAPVLVVYDDSDRPSRIPERFSGSNSGNTATLTISRVEAGDEADYYCQVWDHSSDHVVFGGGTKLTVL | 1.3 |  | IC50 (MUTZ5细胞中TSLP依赖性pSTAT5活化的抑制) (hTSLP-His): 0.013 nM
BDG38.079 (antibody, V domains shown) VH: QMQLVESGGGVVQPGRSLRLSCAASGFAFRTYGMHWVRQAPGKGLEWVAVIWYDGSNTHYADSVKGRFTITRDNSKNTLNLQMNSLRAEDTAVYYCVRAPQWYLTAEAFDLWGQGTMVTVSS VL: SYVLTQPPSVSVAPGETATITCGGNMIGGYLVHWYQQKPGQAPLLVIYDDVDRPDRIPERFSGSNSGNTATLTISRVEAGDEADYYCQVWDHDSNTMVFGGGTKLTVL |  | ~0.013 | 
BDG33.025 (antibody, V domains shown) VH: QMQLVESGGGVVQPGRSLRLSCAASGFTFRTYGMHWVRQAPGKGLEWVADIWYDGSNKHYADSVKGRFTITRDNSKNTLNLQMNSLRAEDTAVYYCARAPQWYLVAEPFDLWGQGTMVTVSS VL: SYVLTQPPSVSVAPGQTARITCGGNLIGSKLVHWYQQKPGQAPVLVVYDDSDRPSLIPERFSGSNSGNTATLTISRVEAGDEADYYCQVWDSSSDGVVFGGGTKLTVL | 25 |  | 
BDG33.003 (antibody, V domains shown, also called BGD33.003; 克隆C2) VH: QMQLVESGGGVVQPGRSLRLSCAASGFTFRTYGMHWVRQAPGKGLEWVAVIWYDGSNKHYADSVKGRFTITRDNSKNTLNLQMNSLRAEDTAVYYCARAPQWELTAEAFDIWGQGTMVTVSS VL: SYVLTQPPSVSVAPGQTARITCGGNLIGSKLVHWYQQKPGQAPVLVVYDDSDRPSLIPERFSGSNSGNTATLTISRVEAGDEADYYCQVWDSSSDGVVFGGGTKLTVL |  |  | binding result (人TSLP (hTSLP)): binds
BDG38.074 (antibody, V domains shown) VH: QMQLVESGGGVVQPGRSLRLSCAASGFAFRTYGMHWVRQAPGKGLEWVAVIWDDGSNTHYADSVKGRFTITRDNSKNTLNLQMNSLRAEDTAVYYCVRAPQWYLTAEAFDLWGQGTMVTVSS VL: SYVLTQPPSVSVAPGQTATITCGGNMIGAYLVHWYQQKPGQAPLLVVYDDVDRPNRIPERFSGSNSGNTATLTISRVEAGDEADYYCQVWDHNTDKMVFGGGTKLTVL |  | ~0.035 | 
